The subject of data set [1] is ChrocodiLE (TAL-HT x15 GFP fusion) (Xanthomonas (engineered)). As to conditions: FRAP T1/2 68.53 ± 8.45 s (n = 4), live HeLa; nuclear CV 1.1.
Data set [2] has as its system GFP fusion, 0 TAL-repeats (control) (Xanthomonas (engineered)). As to conditions: FRAP T1/2 1.87 ± 0.28 s (n = 3), live HeLa; nuclear CV 0.53.
In data set [3] the test system is TAL-HT x1 GFP fusion (Xanthomonas (engineered)). As to conditions: FRAP T1/2 2.09 ± 0.40 s (n = 5), live HeLa; nuclear CV 0.45, uniform localization as control.
In data set [4] the test system is TAL-HT x12 GFP fusion (Xanthomonas (engineered)). As to conditions: FRAP T1/2 67.84 ± 8.43 s (n = 4), live HeLa; nuclear CV 1.1.
For data set [5], the system named is TAL-HT x2 GFP fusion (Xanthomonas (engineered)). As to conditions: FRAP T1/2 2.91 ± 0.22 s (n = 5), live HeLa; nuclear CV 0.40, uniform localization as control.
Data set [6] has as its system TAL-HT x3 GFP fusion (Xanthomonas (engineered)). As to conditions: FRAP T1/2 6.30 ± 1.86 s (n = 5), live HeLa; nuclear CV 1.2.
For data set [7], the system named is TAL-HT x8 GFP fusion (Xanthomonas (engineered)). As to conditions: FRAP T1/2 30.97 ± 6.79 s (n = 5), live HeLa; nuclear CV 0.87.

Regarding HeLa nuclear genomic DNA (chromatin), the FRAP recovery half-time in data set [1] was determined as 68.5 s; in data set [2], 1.87 s; in data set [3], 2.09 s; in data set [4], 67.8 s; in data set [5] it was 2.91 s; in data set [6], 6.3 s. In data set [7], the FRAP recovery half-time stood at 31 s.
